Data on 1 molecule can be found in patent US20170349943, “METHODS FOR DETECTING ENHANCED NMDA RECEPTOR FUNCTION AND USES THEREOF” (INOVA HEALTH SYSTEM, published 2017).

The target of the series is T1, Elk-1 (Homo sapiens, UniProt P19419 P19419:1-428).
T1 sequence: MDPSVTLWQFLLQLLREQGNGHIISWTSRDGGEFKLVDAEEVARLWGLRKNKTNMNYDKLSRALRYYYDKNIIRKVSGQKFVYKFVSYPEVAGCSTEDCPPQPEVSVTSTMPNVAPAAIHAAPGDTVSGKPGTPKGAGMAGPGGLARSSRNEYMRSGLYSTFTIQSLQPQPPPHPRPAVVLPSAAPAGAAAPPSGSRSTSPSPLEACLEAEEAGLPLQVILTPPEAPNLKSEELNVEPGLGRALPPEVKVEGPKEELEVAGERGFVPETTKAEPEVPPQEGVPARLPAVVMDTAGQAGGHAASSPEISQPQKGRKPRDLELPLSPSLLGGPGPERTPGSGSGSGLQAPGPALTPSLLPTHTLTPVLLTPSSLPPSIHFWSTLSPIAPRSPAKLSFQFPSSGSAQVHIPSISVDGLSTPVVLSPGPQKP
The experiment in a line: EMSA; bound to a greater extent than G allele; 50 mM HEPES pH 7.5, 10 mM MgCl2, on ice 1 h, then Elk-1 antibody. As to conditions: tags: recombinant human Elk-1, Sigma Aldrich. As for the experimental part:
FIG. 2 depicts binding of recombinant Elk-1 protein (an ETS transcription factor) to double stranded DNAs containing the single nucleotide polymorphism (SNP) rs3764030 variant A allele from the human GRIN2B gene promoter. Double-stranded DNA targets (Methods) were sequentially incubated with 1 μg recombinant human Elk-1 protein in EMSA buffer, then incubated with the Elk-1 antibody 20 minutes. […] Samples were electrophoresed through 6% polyacrylamide gels in HEPES buffer pH 6.3, without polydldC. The gel was then stained with the SYBR Green to visualize DNA and SYPRO Ruby for protein bound to DNA. The stained gel was scanned using G:BOX (Syngene, US) for imaging. Elk-1 bound to DNA is indicated by the arrow.
The complementary pairs of DNA oligonucleotides were first annealed in Biorad C1000 thermocycler with 1° C./1 min decreasing from 95° C. to 20° C. The annealing buffer composition was 10 mM Tris-HCl pH 8.0, 1 mM EDTA and 50 mM NaCl. The annealed dsDNA was then incubated with 1 μg recombinant human Elk-1 protein (Sigma Aldrich, US) on ice for 1 hour in EMSA buffer, then incubated with the Elk-1 antibody (SC-355)(Santa Cruz Technology, US) 20 minutes in room temperature. The compositions of EMSA buffer was 50 mM HEPES pH7.5, 10 mM MgCl₂, 5% glycerol, 1 mM DTT, 0.3% BSA and 1 mM EDTA. […]
In general terms: A gel shift assay detects complexes by their altered migration in electrophoresis.

B1: GRIN2B promoter rs3764030 A allele probe (dsDNA)
DNA 1: CATCTCCGGGGAACACGCGAA
DNA 2: TTCGCGTGTTCCCCGGAGATG
B1: the binding result is “binds”.
